Square brackets hold non-standard residues; d marks the D form. 5(6)‑carboxyfluorescein = 5(6)-carboxyfluorescein; pS = N[C@@H](COP(=O)(O)O)C(=O)O; βAla = NCCC(=O)O

Experimental findings from PMC12525626, “Phosphorylation as a candidate regulatory mechanism for effector recruitment to tankyrase” (Royal Society Open Science, 2025) are described below.

In experiment [1] the target is T1, Human TNKS2 ARC4 (residues 488-649), wild type (human, UniProt Q9H2K2 488-649).
T1 construct: Tankyrase-2 (TNKS2), human, ankyrin repeat cluster 4, residues 488-649 of NM_025235.2, from the construct pETM30-2-TNKS2 ARC4; Monomeric by SEC-MALS; also called WT ARC4; tankyrase ankyrin repeat cluster 4; source: E. coli BL21-CodonPlus(DE3)-RIL, purified (HisTrap, TEV cleavage, second HisTrap, Superdex 75)
T1 sequence (looked up): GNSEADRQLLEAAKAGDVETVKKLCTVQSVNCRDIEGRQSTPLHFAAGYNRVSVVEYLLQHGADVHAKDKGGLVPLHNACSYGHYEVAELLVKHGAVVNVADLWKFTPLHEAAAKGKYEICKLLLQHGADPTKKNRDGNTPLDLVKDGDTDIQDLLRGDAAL
Briefly: fluorescence polarisation; carboxyfluorescein-labelled MDC1 TBM1 peptides with TNKS2 ARC4 protein (no-protein wells as baseline); POLARstar Omega plate reader; n = 3 separate experiments in technical duplicate; one-site total binding model, standard errors of the fit. As to conditions: both partners purified. A general note: Polarisation of emitted light reports the rotation of a fluorescent probe.

Experiment [2] deals with T1, Human TNKS2 ARC4 (residues 488-649), …. In words: crystal structure; TNKS2 ARC4 at 20 mg/ml with 1.5-fold molar excess of phospho-MDC1 peptide in 25 mM HEPES-NaOH pH 7.5, 100 mM NaCl, 2 mM TCEP; sitting drop, 4°C, 0.1 M Na cacodylate pH 6.5, 0.2 M Na acetate, 30% PEG 8000; molecular replacement. As to conditions: both partners purified.

B1: MDC1 TBM1 peptide, non-phosphorylated (5(6)-carboxyfluorescein-βAla-QRGEPEGGSQ-NH2) (peptide)
peptide: {5(6)‑carboxyfluorescein-βAla}-QRGEPEGGSQ-NH2
notes: also called Non-phosphorylated TBM1; source: synthetic peptide (JPT, Berlin; crude stock, greater than 70% pure by HPLC)
With B1, in experiment [1], the Kd (usually a measure of binding affinity in units of concentration) is 4.5 µM.

B2: MDC1 phospho-TBM1 peptide for co-crystallization (acetyl-943ERDTQRGEPEGG-pS-QDQ958-NH2) (peptide)
peptide: Ac-ERDTQRGEPEGG[pS]QDQ-NH2
SMILES: CC(=O)N[C@@H](CCC(=O)O)C(=O)N[C@@H](CCCNC(=N)N)C(=O)N[C@@H](CC(=O)O)C(=O)N[C@H](C(=O)N[C@@H](CCC(N)=O)C(=O)N[C@@H](CCCNC(=N)N)C(=O)NCC(=O)N[C@@H](CCC(=O)O)C(=O)N1CCC[C@H]1C(=O)N[C@@H](CCC(=O)O)C(=O)NCC(=O)NCC(=O)N[C@@H](COP(=O)(O)O)C(=O)N[C@@H](CCC(N)=O)C(=O)N[C@@H](CC(=O)O)C(=O)N[C@@H](CCC(N)=O)C(N)=O)[C@@H](C)O
notes: Mediator of DNA damage checkpoint protein 1 (MDC1), human, residues 943-958 around TBM1; also called phospho-MDC1 peptide; source: synthetic peptide (JPT, Berlin; HPLC-purified)
As for B2, in experiment [2], the binding result is “binds”.
